Results reported in PMC3819287.

Biological target: J17 (pH-sensitive anti-PCSK9 mAb, variant of J16) engineered pH-sensitive variant of J16; substitutions not stated in this article (see ref 9)
Test: KinExA (kinetic exclusion assay), multi-curve global analysis
Settings: pH 7.4; room temperature (approximately 23 C); 154 mM NaCl; PBS pH 7.4 (1 mM KH2PO4, 5.6 mM Na2HPO4, 154 mM NaCl)

KD: 0.064 nM
Substance: rhPCSK9 (recombinant human proprotein convertase subtilisin/kexin type 9)
